# B1: fetuin (alpha-2-HS-glycoprotein): asialofetuin (protein)
# parent chain: MKSFVLLFCLAQLWGCHSIPLDPVAGYKEPACDDPDTEQAALAAVDYINKHLPRGYKHTLNQIDSVKVWPRRPTGEVYDIEIDTLETTCHVLDPTPLANCSVRQQTQHAVEGDCDIHVLKQDGQFSVLFTKCDSSPDSAEDVRKLCPDCPLLAPLNDSRVVHAVEVALATFNAESNGSYLQLVEISRAQFVPLPVSVSVEFAVAATDCIAKEVVDPTKCNLLAEKQYGFCKGSVIQKALGGEDVRVTCTLFQTQPVIPQPQPDGAEAEAPSAVPDAAGPTPSAAGPPVASVVVGPSVVAVPLPLHRAHYDLRHTFSGVASVESSSGEAFHVGKTPIVGQPSIPGGPVRLCPGRIRYFKI
# Assay: overnight CpaA digestion, SDS-PAGE
# Conditions: glycan changed form; control: untreated fetuin
protein,measurement,value
B1,other: proteolytic processing,no change
